The target of the assay is HLA-A*02:01 on the surface of T2 cells. As to the kind of experiment: FACS, anti-HLA antibody staining of peptide-pulsed T2 cells (% HLA-A*02+). The note with it: peptide 50 μM. In general terms: A flow cytometer gives signals particle by particle.
The mark [1] stands for this setting: parent: est. 77, read off a plot.

As to HPV16 E6 29-38 peptide C9A, the response is, setting by setting: (parent: 79) 60%; under setting [1], 58%. For HPV16 E6 29-38 peptide D4A, for the setting “parent: 79”, the response amounted to 1.9%.

For HPV16 E6 29-38 peptide E8A, the response runs as follows: (parent: 79) 74%; under setting [1], 76%.

As to HPV16 E6 29-38 peptide H3A, the response is, setting by setting: (parent: 79) 84%; under setting [1], 81%. On to HPV16 E6 29-38 peptide I2A, for which, for the setting “parent: 79”, the response came to 2%. On to HPV16 E6 29-38 peptide I5A, for which the response runs as follows: (parent: 79) 33%; under setting [1], 34%. HPV16 E6 29-38 peptide I6A: the response reads like this: (parent: 79) 71%; under setting [1], 69%. On to HPV16 E6 29-38 peptide L7A, for which the response (parent: 79) amounted to 2.4%. For the substance HPV16 E6 29-38 peptide T1A, the response was determined as 79% (parent: 79) and 79% under setting [1]. In the case of HPV16 E6 29-38 peptide V10A, the response (parent: 79) worked out at 2%.

Source of the values: paper PMC11546159.
